Experimental data reported in patent publication US20190127462A1 (UNIVERSITY OF TSUKUBA, published 2019).

B1: anti-human DNAM-1 monoclonal antibody No. 3 (antibody, V domains shown)
VH: EISCKASGYTFTNYWLGWVKQRPGHGLEWIGDIYPGGGYTNYNEKFKGKATLTADTSSSTAYMQLSSLTSEDSAVYFCANAYYRYKGFAYWGQGTLVTVSA
VL: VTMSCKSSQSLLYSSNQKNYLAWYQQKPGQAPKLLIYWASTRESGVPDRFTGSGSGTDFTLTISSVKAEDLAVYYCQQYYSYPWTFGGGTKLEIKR
notes: Mouse hybridoma monoclonal antibody
B2: anti-human DNAM-1 monoclonal antibody No. 1 (antibody, V domains shown)
VH: SQSLSLTCSVTGYSITSGYYWNWIRQFPGNKLEWMGYISYDGSNNYNPSLKNRISITRDTSKNQFFLKLNSVTTEDTATYYCARAYYGNYVGYFDVWGAGTTVTVSS
VL: RVTITCKASQSVSNDVAWYQQKPGQSPKLLIYYASNRYTGVPDRFTGSGYGTDFTFTISTVQAEDLAVYFCQQDYSSPLTFGAGTKLELKR
notes: as for B1
B3: anti-human DNAM-1 monoclonal antibody No. 2 (antibody, V domains shown)
VH: SQSLSLTCTVTGYSITSDYAWNWIRQFPGNKLEWMGYISYSGTTTYNPSLKSRISITRDTSKNQFFLQLNSVTTEDTATYYCAELSMDYWGQGTSVTVSS
VL: DIVLSQSPAILSVSPGERVSFSCRASQSIGTSIHWYQQRTNGSPRLLIKYASESISGIPSRFSGSGSGTDFTLSINSVESEDIADYYCQQSRSWPLTFGAGTKLELKR
notes: as for B1
B4: anti-human DNAM-1 monoclonal antibody No. 4 (antibody, V domains shown)
VH: KWGLSEISCKASGYTFTDYNMHWVKQSHGKSLEWIGYIYPYNGGTGYNQKFKSKATLTVDNSSSTAYMELRSLTSEDSAVYYCAGYWYFDVWGAGTTVTVSS
VL: EKVSITCKASQDVGTAVAWYQQKPGQSPKLLIYWASTRHTGVPDRFTGSGSGTDFTLTISNVQSEDLADYFCQQYSSYPWTFGGGTKLEIKR
notes: as for B1

How the values were obtained:
[1] = molecular target: T1, human DNAX accessory molecule-1 (DNAM-1) protein (human, UniProt Q15762 19-336); assay: flow cytometry on 1x10^5 DNAM-1/BW cells
T1 construct: whole, on cells; Expressed on BW5147 mouse lymphocyte cells (DNAM-1/BW) or present on human peripheral blood lymphocytes / CD8+ T cells; also called CD226; human DMAM-1 protein
T1 sequence (looked up): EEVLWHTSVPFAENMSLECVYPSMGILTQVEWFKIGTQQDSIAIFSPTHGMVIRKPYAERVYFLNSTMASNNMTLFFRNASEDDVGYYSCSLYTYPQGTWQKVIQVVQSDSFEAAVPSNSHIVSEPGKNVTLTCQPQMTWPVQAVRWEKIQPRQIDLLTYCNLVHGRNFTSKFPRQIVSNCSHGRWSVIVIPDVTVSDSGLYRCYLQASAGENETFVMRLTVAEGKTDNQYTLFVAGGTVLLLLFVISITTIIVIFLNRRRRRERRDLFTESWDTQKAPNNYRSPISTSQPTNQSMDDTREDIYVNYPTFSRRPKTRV

[2] = molecular target: T1, human DNAX accessory molecule-1 …; assay: flow cytometry; 1x10^5 DNAM-1/BW cells pre-saturated with 1000 ng hCD155-Fc (competitor); remaining hCD155-Fc detected
Protocol: After DNAM-1/BW cells reacted with the hCD155-Fc protein in advance had been reacted with a specific one of the monoclonal antibody No. 1 to No. 6 diluted serially in Test example 6, the hCD155-Fc protein bound to the DNAM-1 protein present on the surfaces of the DNAM-1/BW cells was detected. The detection of the hCD155-Fc protein was conducted using an anti-human IgG antibody. The reaction was made on ice for 30 minutes.
It was also confirmed that, in the range where the concentration of the monoclonal antibody reacted with the DNAM-1/BW cells was low, the reidues of hCD155-Fc protein after the DNAM-1/BW cells had been reacted with the monoclonal antibody No. 3 was smaller than that of hCD155-Fc protein after the DNAM-1/BW cells had been reacted with the monoclonal antibody No. 2. This proves that, in the range where the concentration of the monoclonal antibody reacted with the DNAM-1/BW cells was low, the monoclonal antibody No. 3 had higher activity of inhibiting the interaction between the DNAM-1 protein and the CD155 protein than the monoclonal antibody No. 2. In the range where the concentration of the monoclonal antibody reacted with the DNAM-1/BW cells was high, the difference in the above reactivity between the monoclonal antibody Nos. 2 and 3 was small. The amount of monoclonal antibody No. 3 required for completely inhibiting the interaction between the DNAM-1 protein and the CD155 protein was 300 ng.

| Binder | minimum amount required for saturating human DNAM-1 on 1x10^5 DNAM-1/BW cells [1] | amount required for completely inhibiting the interaction between the DNAM-1 protein and the CD155 protein [2] |
| --- | --- | --- |
| B1 | 100 ng | 300 ng |
| B2 | 30 ng | 100 ng |
| B3 | 50 ng | 300 ng |
| B4 | 100 ng | 1000 ng |
